{"source": "patent US20210171947A1", "about": "(PAIRWISE PLANTS SERVICES, published 2021)", "binders": {"B1": {"name": "VirD2::SH3dom (SEQ ID NO: 186) (other)", "chain": "MPDRAQVIIRIVPGGGTKTLQQIINQLEYLSRKGRLELQRSARHLDIPLPPDQIHELARSWVQETGTYDESQPDEERQQELTTHIIVSFPAGTSQVAAYAASREWAAEMFGSGAGGGRYNYLTAFHIDRDHPHLHVVVNRRELLGHGWLKISRRHPQLNYDALRIKMAEISLRHGIALDASRRAERGITERPITYAQYRRLEREQARQIRFEDADLEQSSPQGDHPEFSQPFDTSPFEASAGGPEDMPRPNNRQNESQVHLQEPAGVSNEAGVLVRVALETERLAQPFVSETILADDIGSGSSRVAEGRVESANRTPDIPRAATEAATHTTHDRQRRAKRPHDDDGGPSGAKRVTLEGIAVGPQANAGEQDGSSGGSSGGSMSGSKKRRIKQDAEYVRALFDFNGNDEEDLPFKKGDILRIRDKPEEQWWNAEDSEGKRGMIPVPYVEKYSGSGGSSGGSSGPLVRQAGTSRPSPPTATTRASTATDSLSATAHLQQRRGVLSKRPREDDDGEPSERKRERDERSKDGRGGNRR"}}, "target": "4xSH3lig::Cas12a (SEQ ID NO: 187)", "assay": "cell-based or functional assay"}
{"binder": "B1", "values": [{"measurement": "increase of green shoots over the negative control, EF1α site", "value": "~3", "unit": "fold"}, {"measurement": "increase of green shoots over the negative control, polyubiquitin site", "value": "~2", "unit": "fold"}]}
